The record followed here is patent US7163921 (dated 2007).

Numbered stars: 1 amine (or outer) side, 2 acyl side, 3 side chain; on linkers, the order of the positions; unused ones are H or OH. Square brackets hold non-standard residues; d marks the D form. * marks the point of attachment. X1 = N‑((R)-1-(2-naphthyl)ethyl)amide, C[C@@H](N*)c1ccc2ccccc2c1; 3,5‑dimethyl‑Tyr = Cc1cc(C[C@H](N[*:1])C(=O)[*:2])cc(C)c1O[*:3]; 6‑guanidinohexyl = N=C(N)NCCCCCC*

The target of one assay is nociceptin receptor (human, UniProt P41146). In words: competition, [3H]nociceptin, 25C, pH 7.8.
The target of a further assay is mu opioid receptor (human, UniProt P35372). In words: competition, [3H]diprenorphine, 25C, pH 7.8.
Chain of mu opioid receptor (P35372 whole entry): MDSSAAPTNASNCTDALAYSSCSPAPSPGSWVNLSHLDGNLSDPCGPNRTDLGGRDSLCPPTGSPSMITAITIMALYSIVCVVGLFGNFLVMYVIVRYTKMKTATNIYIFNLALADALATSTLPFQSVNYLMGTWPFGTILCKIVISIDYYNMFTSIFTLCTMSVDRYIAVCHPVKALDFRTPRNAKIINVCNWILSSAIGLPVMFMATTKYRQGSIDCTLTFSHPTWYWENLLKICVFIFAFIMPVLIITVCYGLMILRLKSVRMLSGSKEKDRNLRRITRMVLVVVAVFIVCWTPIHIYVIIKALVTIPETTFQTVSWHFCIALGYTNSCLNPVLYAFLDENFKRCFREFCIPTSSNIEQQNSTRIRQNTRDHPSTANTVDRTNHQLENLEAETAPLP

Chain of nociceptin receptor (P41146 whole entry): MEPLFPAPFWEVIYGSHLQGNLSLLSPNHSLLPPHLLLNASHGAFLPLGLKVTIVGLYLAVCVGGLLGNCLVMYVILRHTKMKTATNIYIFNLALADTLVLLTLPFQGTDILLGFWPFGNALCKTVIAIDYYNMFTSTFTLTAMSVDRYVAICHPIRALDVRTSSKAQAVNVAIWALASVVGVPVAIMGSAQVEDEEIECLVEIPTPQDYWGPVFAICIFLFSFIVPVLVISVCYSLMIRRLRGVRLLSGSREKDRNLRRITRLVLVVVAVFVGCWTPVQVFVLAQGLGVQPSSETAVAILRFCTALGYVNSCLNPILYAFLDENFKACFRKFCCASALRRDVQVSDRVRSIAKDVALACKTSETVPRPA

What is called Ki is the equilibrium dissociation constant of an inhibitor or competing ligand from its target. Low values mean higher affinity, high ones lower affinity. In the case of {6‑guanidinopentyl}-Tyr-Tyr-Arg-X1 [Example 23 (N-α-6-guanidinopentyl-Tyr-Tyr-N-[(R)-1-(2-naphthyl)ethyl]-argininamide)], the Ki in the assay with nociceptin receptor amounted to 1.8 nM; with mu opioid receptor, 59 nM.

B1: Example 1 (N-α-6-guanidinohexyl-Tyr-Tyr-Arg-Trp-NH2) (peptide)
chain: {6‑guanidinohexyl}-YYRW-NH2
SMILES: N=C(N)NCCCCCCN[C@@H](Cc1ccc(O)cc1)C(=O)N[C@@H](Cc1ccc(O)cc1)C(=O)N[C@@H](CCCNC(=N)N)C(=O)N[C@@H](Cc1c[nH]c2ccccc12)C(N)=O
Regarding B1, the results for the Ki with nociceptin receptor and with mu opioid receptor were 0.43 nM and 40 nM, respectively.

B2: Example 27 (N-α-6-guanidinohexyl-3,5-dimethyl-Tyr-3,5-dimethyl-Tyr-N-[(R)-1-(2-naphthyl)ethyl]-argininamide) (peptide)
chain: {6‑guanidinohexyl}-[3,5‑dimethyl‑Tyr]-[3,5‑dimethyl‑Tyr]-Arg-X1
SMILES: Cc1cc(C[C@H](NCCCCCCNC(=N)N)C(=O)N[C@@H](Cc2cc(C)c(O)c(C)c2)C(=O)N[C@@H](CCCNC(=N)N)C(=O)N[C@H](C)c2ccc3ccccc3c2)cc(C)c1O
Turning to B2, the Ki with nociceptin receptor stood at 0.6 nM; in the assay with mu opioid receptor, 10 nM.

B3: Example 25 (N-α-6-guanidinohexyl-3,5-dimethyl-Tyr-Tyr-N-[(R)-1-(2-naphthyl)ethyl]-argininamide) (peptide)
chain: {6‑guanidinohexyl}-[3,5‑dimethyl‑Tyr]-Tyr-Arg-X1
SMILES: Cc1cc(C[C@H](NCCCCCCNC(=N)N)C(=O)N[C@@H](Cc2ccc(O)cc2)C(=O)N[C@@H](CCCNC(=N)N)C(=O)N[C@H](C)c2ccc3ccccc3c2)cc(C)c1O
Consider B3, for which the Ki was determined as 0.9 nM with nociceptin receptor and 14 nM in the assay with mu opioid receptor.
